The values that follow come from the supplement of paper PMC12764529.

± gives the half width of the 95% confidence interval.

The nature of data set [1]: folding stability dG unfold (combined trypsin and chymotrypsin); higher = more stable. The procedure, abridged:
(§1)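 Designed mini-proteins with no cysteine and under 80 residues were kept only if AlphaFold2 dimer inter-PAE was above 15. In a PA-tagged cDNA display construct, they were digested with trypsin and chymotrypsin and then sequenced. K50 was inferred by Bayesian fitting of counts, and unfolding free energy was derived per protease or combined against a sequence-predicted unfolded-state K50 and a shared folded-state K50.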

A short description of data set [2]: folding stability dG unfold from chymotrypsin proteolysis; higher = more stable. An outline of the steps:
as §1

Data set [3] is described as follows: folding stability dG unfold from trypsin proteolysis; higher = more stable. The procedure, abridged:
as §1

“SAGGSAGGSAGLTLRVKVKVELEYDPETNELTLRVEVEIELFPPPPLVVLSKEQLEELEESAGGSAGGSAGG [r17_454_TrROS_Hall]”: the “folding stability dG unfold” value is 3.21 ± 0.39 kcal/mol in data set [1], 3.65 ± 0.24 kcal/mol in data set [2] and 2.67 ± 0.18 kcal/mol in data set [3].

Take “SAGGSAGGSAGMAEKLPSLSLFYLPETGDLVLIREETYVDPNDPDKSIVKQEIYVLPPEYSAGGSAGGSAGG [r17_241_TrMRF]”: the results for the “folding stability dG unfold” value in data set [1], in data set [2] and in data set [3] were 1.51 ± 0.096 kcal/mol, 1.74 ± 0.13 kcal/mol and 0.984 ± 0.051 kcal/mol, respectively.

Consider “SAGGSAGGSAGMDKDGKWRRIPFMFVNPGDGYIFKWEIWIYPGGNIELEMEIIGPIKPGASAGGSAGGSAGG [r11_226_TrROS]”, for which the “folding stability dG unfold” value in data set [1] worked out at 4.28 ± 0.11 kcal/mol; in data set [2], 4.8 ± 0.061 kcal/mol; in data set [3], 3.13 ± 0.13 kcal/mol.

Take “SAGGSAGGSAGMEIEEEDGKLRLRLEAEFEVTVTTRNADGSTTETTARVRVELTFELPEESAGGSAGGSAGG [r17_103_TrROS_Hall]”: the “folding stability dG unfold” value came to 3.89 ± 0.22 kcal/mol in data set [1], 3.89 ± 0.12 kcal/mol in data set [2] and 3.67 ± 0.29 kcal/mol in data set [3].

With “SAGGSAGGSAGMEIEEKGDYLVIRIKVKEGETIELPEGWEVVDVEYDPETEEVTIVIRRKSAGGSAGGSAGG [r11_942_TrROS_Hall]”, the entries for the “folding stability dG unfold” value in data set [1], in data set [2] and in data set [3] were 3.9 ± 0.28 kcal/mol, 2.88 ± 0.1 kcal/mol and 4.38 ± 0.18 kcal/mol, respectively.

“SAGGSAGGSAGMETTDSVITYPDGSVVTVTTLPDGTTRVTTFYPESGLTEEEIVPAAELGSAGGSAGGSAGG [r11_1015_JUSTAS]”: the entries for the “folding stability dG unfold” value in data set [1], in data set [2] and in data set [3] were 2.19 ± 0.086 kcal/mol, 2.56 ± 0.1 kcal/mol and 1.8 ± 0.086 kcal/mol, respectively.

As to “SAGGSAGGSAGMEYHLVVVRPPNGEELVLLTDDDPELARRAARELFPGAEVRVEPVVLPESAGGSAGGSAGG [r11_850_TrMRF]”, the “folding stability dG unfold” value worked out at 0.099 ± 0.077 kcal/mol in data set [1], 0.0832 ± 0.069 kcal/mol in data set [2] and 0.111 ± 0.034 kcal/mol in data set [3].

As for “SAGGSAGGSAGMKEGEIVEVTVPIPENGEEIKVKVVAPPSLTEEEARALAEEKAKEIYEKSAGGSAGGSAGG [r11_355_JUSTAS]”, the entries for the “folding stability dG unfold” value in data set [1], in data set [2] and in data set [3] were 0.595 ± 0.077 kcal/mol, 0.99 ± 0.04 kcal/mol and 0.0651 ± 0.062 kcal/mol, respectively.

As for “SAGGSAGGSAGMKIEVFPNTIKIYPENGKVLTFEAPDFGEEAIKEIAKAFPNAKIEPVEPSAGGSAGGSAGG [r17_545_TrMRF]”, the “folding stability dG unfold” value in data set [1] is -0.189 ± 0.25 kcal/mol; in data set [2], -0.335 ± 0.16 kcal/mol; in data set [3] it was -0.338 ± 0.13 kcal/mol.

On to “SAGGSAGGSAGMKIKTKNGEVIEIKVDKKTGKIEITFPDGKKITIDAPNLTIEDIKKLLESAGGSAGGSAGG [r11_729_TrMRF]”, for which the “folding stability dG unfold” value came to 2.36 ± 0.051 kcal/mol in data set [1], 2.34 ± 0.047 kcal/mol in data set [2] and 2.47 ± 0.064 kcal/mol in data set [3].

With “SAGGSAGGSAGMKPGETYLVRIRVKVDGKWYEKEVKFKSLEELKKAGIENIEEIEIRKLPSAGGSAGGSAGG [r17_290_TrROS_Hall]”, the “folding stability dG unfold” value in data set [1] was 2.47 ± 0.16 kcal/mol; in data set [2] it was 2.72 ± 0.075 kcal/mol; in data set [3] it was 1.99 ± 0.033 kcal/mol.

Turning to “SAGGSAGGSAGMKPNEPDLVLLTTTVTLTTTETTTDEDGNTYTTTTTTTLTTTTLLPRGTSAGGSAGGSAGG [r17_523_TrROS_Hall]”, the “folding stability dG unfold” value worked out at 3.63 ± 0.1 kcal/mol in data set [1], 3.94 ± 0.087 kcal/mol in data set [2] and 2.77 ± 0.17 kcal/mol in data set [3].

Regarding “SAGGSAGGSAGMKSTVTQPGDTWTITITDPETGEVTTYTLTPAQLGELAASSRPVAVAPGSAGGSAGGSAGG [r11_741_JUSTAS]”, the figures for the “folding stability dG unfold” value in data set [1], in data set [2] and in data set [3] were 1.24 ± 0.058 kcal/mol, 1.5 ± 0.086 kcal/mol and 0.614 ± 0.053 kcal/mol, respectively.

For “SAGGSAGGSAGMKTITKKVKSEEEAKKLAEELKKKGYKVEVEVKKDPKTGNYIVTITIELPESAGGSAGGSA [r18_455_JUSTAS]”, the “folding stability dG unfold” value worked out at 3.91 ± 0.39 kcal/mol in data set [1], 3.89 ± 0.19 kcal/mol in data set [2] and 3.32 ± 0.18 kcal/mol in data set [3].

Regarding “SAGGSAGGSAGMKTYTAEEIKNLPPGAKVIEVDGKLKIEIDGKIYTIEPGETVEIEPLEESAGGSAGGSAGG [r17_91_TrROS_Hall]”, the “folding stability dG unfold” value in data set [1] came to 1.89 ± 0.11 kcal/mol; in data set [2], 2.04 ± 0.043 kcal/mol; in data set [3], 1.57 ± 0.078 kcal/mol.

Take “SAGGSAGGSAGMKVEIEVYELPGGERPVKITVTYENKPKEYEKEAETEEEAEEFAKELLESAGGSAGGSAGG [r11_560_JUSTAS]”: the “folding stability dG unfold” value is -0.0487 ± 0.57 kcal/mol in data set [1], 0.039 ± 0.58 kcal/mol in data set [2] and -0.237 ± 0.23 kcal/mol in data set [3].

“SAGGSAGGSAGMKVELSVAPDPATGEPVLLFHFEDFTLALNPNTGAIGVYLKDEVELFELSAGGSAGGSAGG [r17_544_TrMRF]”: the “folding stability dG unfold” value in data set [1] came out at 2.03 ± 0.14 kcal/mol; in data set [2] it was 1.98 ± 0.1 kcal/mol; in data set [3], 2 ± 0.13 kcal/mol.

For “SAGGSAGGSAGMKVLVLRIRIERPEEELSEEDRAKLPPVRIEIELVEVELPPEVEVREEESAGGSAGGSAGG [r17_310_TrROS_Hall]”, the “folding stability dG unfold” value in data set [1] turned out to be 3.43 ± 0.2 kcal/mol; in data set [2], 3.86 ± 0.11 kcal/mol; in data set [3], 2.44 ± 0.14 kcal/mol.

Regarding “SAGGSAGGSAGMLWIHDPESGTLVMLHPKPDGEVNVQVWQFDPDNGKPEIKTVPADNIEASAGGSAGGSAGG [r11_285_TrROS]”, the “folding stability dG unfold” value in data set [1] is 0.924 ± 0.091 kcal/mol; in data set [2], 1.22 ± 0.18 kcal/mol; in data set [3], 0.376 ± 0.046 kcal/mol.

As to “SAGGSAGGSAGMMVVRAKIKLPNGEVLEIENMSLEEILALAKEKGYEIVDIEVVAPDEEPSAGGSAGGSAGG [r11_283_TrMRF]”, the “folding stability dG unfold” value in data set [1] was 4.37 ± 0.26 kcal/mol; in data set [2], 4.07 ± 0.14 kcal/mol; in data set [3] it was 4.77 ± 0.77 kcal/mol.

As for “SAGGSAGGSAGMNITITFPDGTVVEIPDVPPEYADVTPEKLKEEVLKKYPNVNVKVSPNGSAGGSAGGSAGG [r17_42_JUSTAS]”, the figures for the “folding stability dG unfold” value in data set [1], in data set [2] and in data set [3] were 0.101 ± 0.22 kcal/mol, 0.127 ± 0.038 kcal/mol and 0.302 ± 0.055 kcal/mol, respectively.

Regarding “SAGGSAGGSAGMNKKGKYTVIEELVINPKTNYLFKKKVTIYPDGKIEVKSELLGPILPTESAGGSAGGSAGG [r11_226_TrMRF]”, the “folding stability dG unfold” value in data set [1] worked out at 1.03 ± 0.06 kcal/mol; in data set [2] it was 1.4 ± 0.067 kcal/mol; in data set [3], 0.336 ± 0.051 kcal/mol.

“SAGGSAGGSAGMPIEKALEQADKNGRPVQIRVPNGRDIYITVKYKNGKYKIEIMPAEEIKSAGGSAGGSAGG [r17_463_TrROS]”: the results for the “folding stability dG unfold” value in data set [1], in data set [2] and in data set [3] were 1.51 ± 0.18 kcal/mol, 1.89 ± 0.085 kcal/mol and 1.09 ± 0.047 kcal/mol, respectively.

For “SAGGSAGGSAGMPPPVVVEPKRTSVVPESGLVIIPVTVFNPANGKATLTTYLYDPATGKLVLSAGGSAGGSA [r18_228_JUSTAS]”, the “folding stability dG unfold” value in data set [1] came out at 1.72 ± 0.12 kcal/mol; in data set [2], 2.17 ± 0.058 kcal/mol; in data set [3] it was 0.734 ± 0.17 kcal/mol.

Consider “SAGGSAGGSAGMRKYTWPFRIPLGGKPFEIRVEMEYDPSSGKHRIEITPEAKDLIKKKIFSAGGSAGGSAGG [r11_91_TrROS]”, for which the “folding stability dG unfold” value in data set [1] turned out to be 0.875 ± 0.058 kcal/mol; in data set [2] it was 0.839 ± 0.088 kcal/mol; in data set [3] it was 0.59 ± 0.069 kcal/mol.

For the sequence “SAGGSAGGSAGMRLLTVEYFDENGNPLSVEEIELYIERPPPPFLELEIDPRTGEPRFTGLSAGGSAGGSAGG [r17_348_JUSTAS]”, the “folding stability dG unfold” value in data set [1] was 1.36 ± 0.14 kcal/mol; in data set [2] it was 1.68 ± 0.068 kcal/mol; in data set [3], 1.01 ± 0.078 kcal/mol.

As for “SAGGSAGGSAGMSTTPVAYKFTFTLPGGETLEREGTDVAALKEALKAEYGAVEITVTPVSSAGGSAGGSAGG [r17_508_JUSTAS]”, the entries for the “folding stability dG unfold” value in data set [1], in data set [2] and in data set [3] were 2.17 ± 0.1 kcal/mol, 2.07 ± 0.12 kcal/mol and 2.2 ± 0.042 kcal/mol, respectively.

For the sequence “SAGGSAGGSAGMTFVITDKNGKETTISLEEAAKLLGIPVEEITEEELKEFLEKKVKTIEKISSAGGSAGGSA [r18_403_JUSTAS]”, the “folding stability dG unfold” value was 2.18 ± 0.17 kcal/mol in data set [1], 2.6 ± 0.046 kcal/mol in data set [2] and 0.898 ± 0.074 kcal/mol in data set [3].

In the case of “SAGGSAGGSAGMTIEELKAKGYKVEVVKLPDSPEEVVVVTYPVPPGGIEKSVIPLSEVKLSAGGSAGGSAGG [r17_311_JUSTAS]”, the “folding stability dG unfold” value was 0.375 ± 0.052 kcal/mol in data set [1], 0.601 ± 0.048 kcal/mol in data set [2] and -0.00127 ± 0.025 kcal/mol in data set [3].

In the case of “SAGGSAGGSAGMTIKEDPKTGTRVVRLPDGSVLYIEEKGDKIKKVYSDPVPPVPPGNPALASAGGSAGGSAG [r3_406_JUSTAS]”, the figures for the “folding stability dG unfold” value in data set [1], in data set [2] and in data set [3] were 0.574 ± 0.061 kcal/mol, 0.734 ± 0.048 kcal/mol and 0.217 ± 0.026 kcal/mol, respectively.

For “SAGGSAGGSAGMTIQIEILTTGDLEETKKKLEEELKKKYPSSLKVIIKLSHVPASEAPSDLGSAGGSAGGSA [r18_498_JUSTAS]”, the “folding stability dG unfold” value was 1.13 ± 0.14 kcal/mol in data set [1], 1.19 ± 0.033 kcal/mol in data set [2] and 0.969 ± 0.025 kcal/mol in data set [3].

Turning to “SAGGSAGGSAGMTLEELERLGYKVEVFRHPDTPEVYVRVEYPVPPGGLKRAVIPLKDVKLSAGGSAGGSAGG [r17_311_TrMRF]”, the “folding stability dG unfold” value in data set [1] is 0.499 ± 0.039 kcal/mol; in data set [2] it was 0.93 ± 0.077 kcal/mol; in data set [3] it was -1.35 ± 0.52 kcal/mol.

For “SAGGSAGGSAGMTLEELLRKAKPGQTLTLRVRVVERNEDGSLSEREFTFTFRLELKPEDLSAGGSAGGSAGG [r11_347_TrROS_Hall]”, the results for the “folding stability dG unfold” value in data set [1], in data set [2] and in data set [3] were 3.15 ± 0.21 kcal/mol, 3.61 ± 0.06 kcal/mol and 2.55 ± 0.077 kcal/mol, respectively.

For “SAGGSAGGSAGMTLEIEVDPDNKVIELKIYIGGKPVEMTIVVTPNSGYIRIPDGGWIPIESAGGSAGGSAGG [r11_395_TrROS]”, the results for the “folding stability dG unfold” value in data set [1], in data set [2] and in data set [3] were 2.85 ± 0.083 kcal/mol, 3.37 ± 0.065 kcal/mol and 2.1 ± 0.053 kcal/mol, respectively.

Take “SAGGSAGGSAGMTLKVEVKVKVKVFDENGKLVREEEVTVEVEIELEPAPELRFLSEEELKSAGGSAGGSAGG [r17_325_TrROS_Hall]”: the “folding stability dG unfold” value was 2.12 ± 0.11 kcal/mol in data set [1], 2.63 ± 0.057 kcal/mol in data set [2] and 1.24 ± 0.053 kcal/mol in data set [3].
